Paper PMC10093686, “Structural insights into acetylated histone ligand recognition by the BDP1 bromodomain of Plasmodium falciparum” (International journal of biological macromolecules, 2022)
Where two headings read alike, the source gives them in different places.

How the values were obtained:
[1] = target: PfBDP1-BRD (residues 303–488 or 333–456), bromodomain of P. falciparum Bromodomain Protein 1, as used in ITC (P. falciparum) (UniProt Q8IJ72); test: ITC; histone peptide (2.5–5.0 mM) in the syringe, PfBDP1-BRD (303–488 or 333–456; 100–200 μM) in the sample cell; 5°C; 20 mM sodium phosphate pH 7.5, 150 mM NaCl, 1 mM TCEP; 1:1 binding model, single set of identical sites
[2] = target: PfBDP1-BRD (residues 303–488 or 333–456), bromodomain of P. falciparum Bromodomain Protein 1, as used in ITC (P. falciparum) (UniProt Q8IJ72); test: as above; remark: listed apart in the source

H4K5acK8acK12acK16ac histone peptide (1–24), tetra-acetylated histone H4
Kd [1]: 117 µM
Kd [2]: 173 µM
